Results taken from the RNAGym collection of RNA variant scans (doi:10.1073/pnas.2313332121).

B1: TPR t1 (parent)
chain: GACCAAUCUGCCCUCAGAGCUCGAGAACAUCUUCGGAUGCAGAGGAGGCAGGCUUCGGUGGCGCGAUAGCGCCAACGUCCUCAACCUCCAAUGCAUCCCACCACAUGAUGAUGCCUGAAGAGCCUUGGUUUUUUG

Variants of: B1
Assay: polymerase ribozyme fitness, log enrichment relative to wild type (log ratio); higher = more active; in vitro selection for triplet polymerase activity
How it was run: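 Genotype fitness is the logarithm of its enrichment divided by wild-type enrichment, using inverse-variance-weighted averages of replicates. That logarithm is base 2. Enrichment was measured by Illumina sequencing of input and output libraries from one triplicate in vitro selection round, with frozen incubation at −7 °C, on PCR-built, transcribed mutant libraries of each subunit of a heterodimeric triplet polymerase ribozyme, retaining genotypes with ≥10 input reads and ≥1 read per output.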

Variant	polymerase ribozyme fitness (log ratio)
A6U A27U U81A	-3.93
A6U A18U	-2.27
A6U G60C G120U	0.248
A5U U7A C40G U55G C56U G60A	-3.04
A6C G48U C53U U59G C70U A90C	-4.07
A6U C11U A46C G51C G57U A121C	-2.71
A6U G57A G58C A103C A105C	-6.92
A6G G42C G52U	-2.37
A6U C56U C85A	-2.08
A6G U9C C13G G61C C89U A90U C94U A105U A121G	-5.89
A5U C88G G120C	0.286
A6U C49U C53U C62A G110A	-5.45
A6C C13G G17A A18G	-4.66
A6G U87A U92C A95C C114U	-3.66
U7A C53G A83G A84C	-0.766
A6C A37U G47U G52U G63C C124U	-4.06
A6G U112A	1.64
U7A C22U G39A G44U C53U C56G G63A A68U C124A U125A	-6.98
A6C C94U U106A G113C U126C U133G	-4.12
A6G A24C C88G C102A A111U G122C U133G	-6.51
U7A C49U C53U U59A C76A	-0.656

Variant	polymerase ribozyme fitness (log ratio)
A6U C40G A50U	-1.66
A5U G42C U87A A91G	-1.35
A6U C22A A43C C79G C97U	-8.2
A6U G44U C53U G77U G110A	-3.2
A6U C123G	1.29
A6C G48U U87C G110U	-2
A6G C8G G69U	0.471
A6U C49G G122A	-0.638
A5U G113C U125G U132A	-1.99
A5U C31U G110C	-6.73
A6C C13A G48C C49G	-3.01
A6U U92A G117U	-5.86
A6G G45C	-1.17
U7A C11A C40U G93C A119U G122U	0.441
A6C C97A	-4.04
U7A C8G A43C C53A G77A	-2.07
A6U U54A C62U	0.317
U7A C11A G77A U81G	-1.65
A6C G17C U87C	-3.71
A6U G10A G71A	0.159
A5U G44U C72A A91C G113C U126G G128A	-5.74

Variant	polymerase ribozyme fitness (log ratio)
A6C C73U C85A C114U	-3.29
A6G C8G C12A C28A C56G U81C U112A	-4.51
A5U G69U A91C G113A U116C U130C	-5.42
U7A C12A C28G G58A U87G G120U	-1.72
A5U U87A	-0.245
A5U U87G	-0.121
U7A A18U G71A A119U G122U G135U	-5.8
U7A A18U U59C	-2.69
A6G A46U	-1.37
A6U A27U A121G U130A	-0.823
A5U C70A C97U U125A	-2.48
A6U C13G G52A A111C U116G A121C	-1.83
A6U C101A	-0.91
A6C A18U G52C C79U C89U C101U	-2.96
A6C U7A C8A A29C U55A C88G C94U	-2.74
A6G C13G A111C U112A	-1.87
A6G C72G C88U	-0.419
A5U C40G G71U U87G	-3.8
U7A C8G A16C A46U C70A	-3.78
A5U U129A	-1.34
A6U C53U U54G G93U U106A U129A	-2.14

Variant	polymerase ribozyme fitness (log ratio)
A6U C11G G69U U125G	-1.05
A6G G69A C73A	-2.9
A5U U96A	-0.893
A6U G110A	-0.89
A6C G71C C79U	-0.784
A6G C11U G48C C64U G113A G117A	-7.08
A6G C40U G51U	-4.1
A6G G71A	-0.397
U7A A46U A50U G60A G69U U96C	-1.72
A6U U112G U130A	0.321
A6U U9C	0.514
A5U G25U C53U G69C C94U	-7.17
A6G C12U G69C U112C C123A U131A	0.491
A6C G42U C79U A90C	-0.731
A5U G57A	-0.568
A6U A37G G71A	-0.537
U7A A103U	-4.28
U7A C40U	0.348
U7A C40G	-0.25
A6C C40G C56G	-2.36
A5U C72G G117A	-1.96
